# Literature values, collected in US20250282866A1, “TREATMENT OF DISEASES RELATED TO ATP-BINDING CASSETTE TRANSPORTER 1 DYSFUNCTION USING TREM2 AGONISTS” (VIGIL NEUROSCIENCE, INC., priority 2020, published 2025).
# T1: human TREM2 (Homo sapiens, UniProt Q9NZC2)
# T1 sequence (Q9NZC2 19-230): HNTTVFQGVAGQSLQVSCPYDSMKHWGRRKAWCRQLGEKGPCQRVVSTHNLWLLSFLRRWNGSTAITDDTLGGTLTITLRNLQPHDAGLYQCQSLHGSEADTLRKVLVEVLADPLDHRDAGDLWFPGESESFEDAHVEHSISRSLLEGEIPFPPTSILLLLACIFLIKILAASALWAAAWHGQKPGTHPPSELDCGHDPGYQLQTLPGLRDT
# Target: T1, human TREM2
# Conditions: for Binding Signal (fold over 6E7 Parental antibody) 1st screen 110 nM or 10 nM: values printed without asterisk, concentration 110 nM or 10 nM (footnote a not given)
Molecule,Binding Signal (fold over 6E7 Parental antibody) 1st screen 110 nM or 10 nM,Binding Signal (fold over 6E7 Parental antibody) 2nd screen 2 nM,Binding Signal (fold over 6E7 Parental antibody) 2nd screen 10 nM
"V61: 6E7 variant: VH T30S, S61N, Q99G; VL Q55V, F94L (antibody, V domains shown) VH: EVQLVQSGAEVKKPGESLKISCKGSGYSFSSYWIAWVRQMPGKGLEWMGIIYPGDSDTRYNPSFQGQVTISADKSISTAYLQWSSLKASDTAMYFCARGRTFYYDSSDYFDYWGQGTLVTVSS VL: DIQMTQSPSSVSASVGDRVTITCRASQGISSWLAWYQQKPGKAPKLLIYAASSLVNGVPSRFSGSGSGTDFTLTISSLQPEDFATYFCQQADSLPRTFGQGTKLEIK",5.08 fold over 6E7 Parental antibod,3.63 fold over 6E7 Parental antibod,5.22 fold over 6E7 Parental antibod
"V62: 6E7 variant: VH T30G, S61A, D108G; VL N56R, Q89G (antibody, V domains shown) VH: EVQLVQSGAEVKKPGESLKISCKGSGYSFGSYWIAWVRQMPGKGLEWMGIIYPGDSDTRYAPSFQGQVTISADKSISTAYLQWSSLKASDTAMYFCARQRTFYYDSSGYFDYWGQGTLVTVSS VL: DIQMTQSPSSVSASVGDRVTITCRASQGISSWLAWYQQKPGKAPKLLIYAASSLQRGVPSRFSGSGSGTDFTLTISSLQPEDFATYFCGQADSFPRTFGQGTKLEIK",2.49 fold over 6E7 Parental antibod,1.87 fold over 6E7 Parental antibod,2.89 fold over 6E7 Parental antibod

# The remaining lines, values ahead:
Binding Signal (fold over 6E7 Parental antibody) 1st screen 110 nM or 10 nM,Binding Signal (fold over 6E7 Parental antibody) 2nd screen 2 nM,Binding Signal (fold over 6E7 Parental antibody) 2nd screen 10 nM,Molecule
3.76 fold over 6E7 Parental antibod,4.91 fold over 6E7 Parental antibod,3.71 fold over 6E7 Parental antibod,"V63: 6E7 variant: VH T30R, Q99S; VL N56R, S93R (antibody, V domains shown) VH: EVQLVQSGAEVKKPGESLKISCKGSGYSFRSYWIAWVRQMPGKGLEWMGIIYPGDSDTRYSPSFQGQVTISADKSISTAYLQWSSLKASDTAMYFCARSRTFYYDSSDYFDYWGQGTLVTVSS VL: DIQMTQSPSSVSASVGDRVTITCRASQGISSWLAWYQQKPGKAPKLLIYAASSLQRGVPSRFSGSGSGTDFTLTISSLQPEDFATYFCQQADRFPRTFGQGTKLEIK"
3.64 fold over 6E7 Parental antibod,2.50 fold over 6E7 Parental antibod,4.01 fold over 6E7 Parental antibod,"V72: 6E7 variant: VH A35G, Q99G; VL Q55V, F94Y (antibody, V domains shown) VH: EVQLVQSGAEVKKPGESLKISCKGSGYSFTSYWIGWVRQMPGKGLEWMGIIYPGDSDTRYSPSFQGQVTISADKSISTAYLQWSSLKASDTAMYFCARGRTFYYDSSDYFDYWGQGTLVTVSS VL: DIQMTQSPSSVSASVGDRVTITCRASQGISSWLAWYQQKPGKAPKLLIYAASSLVNGVPSRFSGSGSGTDFTLTISSLQPEDFATYFCQQADSYPRTFGQGTKLEIK"
5.41 fold over 6E7 Parental antibod,4.88 fold over 6E7 Parental antibod,5.48 fold over 6E7 Parental antibod,"V64: 6E7 variant: VH T30Q, Q99G; VL Q55A, F94Y (antibody, V domains shown) VH: EVQLVQSGAEVKKPGESLKISCKGSGYSFQSYWIAWVRQMPGKGLEWMGIIYPGDSDTRYSPSFQGQVTISADKSISTAYLQWSSLKASDTAMYFCARGRTFYYDSSDYFDYWGQGTLVTVSS VL: DIQMTQSPSSVSASVGDRVTITCRASQGISSWLAWYQQKPGKAPKLLIYAASSLANGVPSRFSGSGSGTDFTLTISSLQPEDFATYFCQQADSYPRTFGQGTKLEIK"
